Measured values published in patent publication US20220289857A1.

Molecular target: human Fn14 (full length) on cells (human) (UniProt Q9NP84)
Assay: cell-based or functional assay

Chain of human Fn14 (full length) on cells (human) (Q9NP84 28-129): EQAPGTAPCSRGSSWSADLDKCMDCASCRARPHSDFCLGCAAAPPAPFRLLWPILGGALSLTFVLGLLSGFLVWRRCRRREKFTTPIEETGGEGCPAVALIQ

ICAM-1 MFI on HRMC, 250 ng/mL rhTWEAK, mAb 0.1 µg/mL: 9620 MFI
B1: ITEM-4 commercial anti-Fn14 monoclonal antibody (antibody, from another filing, V domains shown)
VH: QVQLQQSGPELVKPGASVKMSCKASGYTFTDFIIAWVKQRTGQGLEWIGEIYPGTGRTYYSEKFRGKATLTADKSSNTAYMQLSSLTSVDSAVYFCARRTIYYDYDGDYWGQGTTLTVSS
VL: DIVMTQAAFSNPVTLGTSASISCRSSKSLLHSNGITYLYWYLQKPGQSPQLLIYQMSNLASGVPDRFSSSGSGTDFTLRISRVEAEDVGVYYCAHNLELPWTFGGGTKLELK
